B1: 5-cytosine rRNA methyltransferase NSUN4 (Homo sapiens), Q96CB9-1 (parent)
chain: MAALTLRGVRELLKRVDLATVPRRHRYKKKWAATEPKFPAVRLALQNFDMTYSVQFGDLWPSIRVSLLSEQKYGALVNNFAAWDHVSAKLEQLSAKDFVNEAISHWELQSEGGQSAAPSPASWACSPNLRCFTFDRGDISRFPPARPGSLGVMEYYLMDAASLLPVLALGLQPGDIVLDLCAAPGGKTLALLQTGCCRNLAANDLSPSRIARLQKILHSYVPEEIRDGNQVRVTSWDGRKWGELEGDTYDRVLVDVPCTTDRHSLHEEENNIFKRSRKKERQILPVLQVQLLAAGLLATKPGGHVVYSTCSLSHLQNEYVVQGAIELLANQYSIQVQVEDLTHFRRVFMDTFCFFSSCQVGELVIPNLMANFGPMYFCKMRRLT
partner: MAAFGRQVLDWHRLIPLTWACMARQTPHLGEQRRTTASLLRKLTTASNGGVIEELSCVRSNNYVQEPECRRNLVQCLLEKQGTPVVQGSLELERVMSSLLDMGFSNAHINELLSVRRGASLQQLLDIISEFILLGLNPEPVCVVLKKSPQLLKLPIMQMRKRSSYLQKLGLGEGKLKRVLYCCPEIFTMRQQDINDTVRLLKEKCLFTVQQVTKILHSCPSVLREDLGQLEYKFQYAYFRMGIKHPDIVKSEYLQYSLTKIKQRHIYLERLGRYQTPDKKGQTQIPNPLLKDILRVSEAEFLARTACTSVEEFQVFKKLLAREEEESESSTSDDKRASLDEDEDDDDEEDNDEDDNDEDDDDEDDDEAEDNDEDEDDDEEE

Variants of: B1
Details: with mtef4_human MTERF4, Q7Z6M4

Row | Variant | effect of a mutation on the interaction
1 | V65R;R136A;I139R;R141A | disrupting interaction strength
